Source: patent US6372898 (SCHERING, dated 2002)
Where two headings read alike, the source gives them in different places.

T1: cytokine receptor common gamma chain (γc), wild type
T1 sequence: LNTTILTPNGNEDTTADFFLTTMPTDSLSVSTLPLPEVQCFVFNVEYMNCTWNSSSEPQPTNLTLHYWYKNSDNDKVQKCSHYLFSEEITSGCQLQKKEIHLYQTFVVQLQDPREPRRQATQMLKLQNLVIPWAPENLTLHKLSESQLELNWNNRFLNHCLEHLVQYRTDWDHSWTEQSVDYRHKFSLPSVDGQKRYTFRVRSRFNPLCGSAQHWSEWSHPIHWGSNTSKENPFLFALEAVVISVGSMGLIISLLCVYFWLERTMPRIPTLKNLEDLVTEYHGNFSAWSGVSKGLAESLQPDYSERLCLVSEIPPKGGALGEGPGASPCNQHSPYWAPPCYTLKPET

T2: cytokine receptor common gamma chain (γc), wild type
T2 chain: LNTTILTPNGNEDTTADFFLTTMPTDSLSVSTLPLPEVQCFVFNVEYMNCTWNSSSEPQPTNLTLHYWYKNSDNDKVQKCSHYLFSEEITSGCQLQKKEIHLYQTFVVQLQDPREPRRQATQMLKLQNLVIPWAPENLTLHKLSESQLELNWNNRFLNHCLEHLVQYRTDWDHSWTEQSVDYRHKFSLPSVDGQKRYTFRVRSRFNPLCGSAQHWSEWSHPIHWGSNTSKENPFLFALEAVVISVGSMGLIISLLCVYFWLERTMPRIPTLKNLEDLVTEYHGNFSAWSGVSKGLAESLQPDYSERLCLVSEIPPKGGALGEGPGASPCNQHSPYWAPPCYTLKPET

T3: cytokine receptor common gamma chain (γc), wild type (human, UniProt P31785 23-369)
T3 construct: also called WT γc; gc
T3 sequence: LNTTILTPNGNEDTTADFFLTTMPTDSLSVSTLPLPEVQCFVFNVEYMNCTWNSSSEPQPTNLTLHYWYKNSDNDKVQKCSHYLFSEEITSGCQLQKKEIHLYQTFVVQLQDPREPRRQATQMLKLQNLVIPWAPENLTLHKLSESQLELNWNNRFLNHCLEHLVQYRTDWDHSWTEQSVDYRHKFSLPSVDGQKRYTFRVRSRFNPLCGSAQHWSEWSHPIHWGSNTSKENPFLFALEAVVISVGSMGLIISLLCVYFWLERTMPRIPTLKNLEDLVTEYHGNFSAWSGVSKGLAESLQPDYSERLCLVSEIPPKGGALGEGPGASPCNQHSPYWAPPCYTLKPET


How the values were obtained:
[1] = test system: T1, cytokine receptor common gamma chain (γc), wild type
[2] = biological target: T2, cytokine receptor common gamma chain …
[3] = biological target: T3, cytokine receptor common gamma chain …; assay: co-immunoprecipitation (summary of the combined results)

Binder | IL-2 induced tyrosine phosphorylation of STAT5b in IL-2R+ fibroblasts [1] | binding result [3] | also measured
Jak3/Jak1 chimera J3 1-256 (enzyme, part only; not given: Jak1 C-terminal part and tag) chain, part: MAPPSEETPLIPQRSCSLLSTEAGALHVLLPARAPGPPQRLSFSFGDHLAEDLCVQAAKASGILPVYHSLFALATEDLSCWFPPSHIFSVEDASTQVLLYRIRFYFPNWFGLEKCHRFGLRKDLASAILDLPVLEHLFAQHRSDLVSGRLPVGLSLKEQGECLSLAVLDLARMAREQAQRPGELLKTVSYKACLPPSLRDLIQGLSFVTRRAIRRTVRRALPRVAACQADRHSLMAKYIMDLERLDPAGAAETFHV | the J3 1-256 chimera (encoding both of the entire JH7/JH6 regions) responded to IL-2 stimulation by tyrosine phosphorylating STAT5b |  | IL-2 induced tyrosine phosphorylation of the chimera in IL-2R+ fibroblasts [1]: The smallest region of a chimeric Jak3/Jak1 which reconstituted IL-2-induced tyrosine phosphorylation was a region that contained both of the entire JH7 and JH6 domains; phosphorylation of IL-2Rβ after IL-2 in IL-2R+ fibroblasts [1]: it was only detected in cell lines that expressed Jak3/Jak1 chimeras having the entire JH7 and JH6 domains
wild-type Jak3 (protein) MAPPSEETPLIPQRSCSLLSTEAGALHVLLPARAPGPPQRLSFSFGDHLAEDLCVQAAKASGILPVYHSLFALATEDLSCWFPPSHIFSVEDASTQVLLYRIRFYFPNWFGLEKCHRFGLRKDLASAILDLPVLEHLFAQHRSDLVSGRLPVGLSLKEQGECLSLAVLDLARMAREQAQRPGELLKTVSYKACLPPSLRDLIQGLSFVTRRAIRRTVRRALPRVAACQADRHSLMAKYIMDLERLDPAGAAETFHVGLPGALGGHDGLGLLRVAGDGGIAWTQGEQEVLQPFCDFPEIVDISIKQAPRVGPAGEHRLVTVTRTDNQILEAEFPGLPEALSFVALVDGYFRLTTDSQHFFCKEVAPPRLLEEVAEQCHGPITLDFAINKLKTGGSRPGSYVLRRSPQDFDSFLLTVCVQNPLGPDYKGCLIRRSPTGTFLLVGLSRPHSSLRELLATCWDGGLHVDGVAVTLTSCCIPRPKEKSNLIVVQRGHSPPTSSLVQPQSQYQLSQMTFHKIPADSLEWHENLGHGSFTKIYRGCRHEVVDGEARKTEVLLKVMDAKHKNCMESFLEAASLMSQVSYRHLVLLHGVCMAGDSTMVQEFVHLGAIDMYLRKRGHLVPASWKLQVVKQLAYALNYLEDKGLPHGNVSARKVLLAREGADGSPPFIKLSDPGVSPAVLSLEMLTDRIPWVAPECLREAQTLSLEADKWGFGATVWEVFSGVTMPISALDPAKKLQFYEDRQQLPAPKWTELALLIQQCMAYEPVQRPSFRAVIRDLNSLISSDYELLSDPTPGALAPRDGLWNGAQLYACQDPTIFEERHLKYISQLGKGNFGSVELCRYDPLAHNTGALVAVKQLQHSGPDQQRDFQREIQILKALHSDFIVKYRGVSYGPGRPELRLVMEYLPSGCLRDFLQRHRARLDASRLLLYSSQICKGMEYLGSRRCVHRDLAARNILVESEAHVKIADFGLAKLLPLDKDYYVVREPGQSPIFWYAPESLSDNIFSRQSDVWSFGVVLYELFTYCDKSCSPSAEFLRMMGCERDVPALCRLLELLEEGQRLPAPPACPAEVHELMKLCWAPSPQDRPSFSALGPQLDMLWSGSRGCETHAFTAHPEGKHHSLSFS |  |  | IL-2 induced tyrosine phosphorylation of Jak3 in IL-2R+ fibroblasts [2]: Jak3 was rapidly tyrosine phosphorylated and associated with the IL-2 receptor complex; IL-2 induced tyrosine phosphorylation of STAT5b in IL-2R+ fibroblasts [2]: Cells expressing wild type Jak3 (WT) exhibited tyrosine phosphorylation of STAT5b
Jak3 I102A (enzyme, not shown: C-terminal FLAG or Myc tag joined through a ClaI site) MAPPSEETPLIPQRSCSLLSTEAGALHVLLPARAPGPPQRLSFSFGDHLAEDLCVQAAKASGILPVYHSLFALATEDLSCWFPPSHIFSVEDASTQVLLYRARFYFPNWFGLEKCHRFGLRKDLASAILDLPVLEHLFAQHRSDLVSGRLPVGLSLKEQGECLSLAVLDLARMAREQAQRPGELLKTVSYKACLPPSLRDLIQGLSFVTRRAIRRTVRRALPRVAACQADRHSLMAKYIMDLERLDPAGAAETFHVGLPGALGGHDGLGLLRVAGDGGIAWTQGEQEVLQPFCDFPEIVDISIKQAPRVGPAGEHRLVTVTRTDNQILEAEFPGLPEALSFVALVDGYFRLTTDSQHFFCKEVAPPRLLEEVAEQCHGPITLDFAINKLKTGGSRPGSYVLRRSPQDFDSFLLTVCVQNPLGPDYKGCLIRRSPTGTFLLVGLSRPHSSLRELLATCWDGGLHVDGVAVTLTSCCIPRPKEKSNLIVVQRGHSPPTSSLVQPQSQYQLSQMTFHKIPADSLEWHENLGHGSFTKIYRGCRHEVVDGEARKTEVLLKVMDAKHKNCMESFLEAASLMSQVSYRHLVLLHGVCMAGDSTMVQEFVHLGAIDMYLRKRGHLVPASWKLQVVKQLAYALNYLEDKGLPHGNVSARKVLLAREGADGSPPFIKLSDPGVSPAVLSLEMLTDRIPWVAPECLREAQTLSLEADKWGFGATVWEVFSGVTMPISALDPAKKLQFYEDRQQLPAPKWTELALLIQQCMAYEPVQRPSFRAVIRDLNSLISSDYELLSDPTPGALAPRDGLWNGAQLYACQDPTIFEERHLKYISQLGKGNFGSVELCRYDPLAHNTGALVAVKQLQHSGPDQQRDFQREIQILKALHSDFIVKYRGVSYGPGRPELRLVMEYLPSGCLRDFLQRHRARLDASRLLLYSSQICKGMEYLGSRRCVHRDLAARNILVESEAHVKIADFGLAKLLPLDKDYYVVREPGQSPIFWYAPESLSDNIFSRQSDVWSFGVVLYELFTYCDKSCSPSAEFLRMMGCERDVPALCRLLELLEEGQRLPAPPACPAEVHELMKLCWAPSPQDRPSFSALGPQLDMLWSGSRGCETHAFTAHPEGKHHSLSFS |  | no binding | 
Jak3 L98A (enzyme, also called Leucine 98A; not shown: C-terminal FLAG or Myc tag joined through a ClaI site) MAPPSEETPLIPQRSCSLLSTEAGALHVLLPARAPGPPQRLSFSFGDHLAEDLCVQAAKASGILPVYHSLFALATEDLSCWFPPSHIFSVEDASTQVALYRIRFYFPNWFGLEKCHRFGLRKDLASAILDLPVLEHLFAQHRSDLVSGRLPVGLSLKEQGECLSLAVLDLARMAREQAQRPGELLKTVSYKACLPPSLRDLIQGLSFVTRRAIRRTVRRALPRVAACQADRHSLMAKYIMDLERLDPAGAAETFHVGLPGALGGHDGLGLLRVAGDGGIAWTQGEQEVLQPFCDFPEIVDISIKQAPRVGPAGEHRLVTVTRTDNQILEAEFPGLPEALSFVALVDGYFRLTTDSQHFFCKEVAPPRLLEEVAEQCHGPITLDFAINKLKTGGSRPGSYVLRRSPQDFDSFLLTVCVQNPLGPDYKGCLIRRSPTGTFLLVGLSRPHSSLRELLATCWDGGLHVDGVAVTLTSCCIPRPKEKSNLIVVQRGHSPPTSSLVQPQSQYQLSQMTFHKIPADSLEWHENLGHGSFTKIYRGCRHEVVDGEARKTEVLLKVMDAKHKNCMESFLEAASLMSQVSYRHLVLLHGVCMAGDSTMVQEFVHLGAIDMYLRKRGHLVPASWKLQVVKQLAYALNYLEDKGLPHGNVSARKVLLAREGADGSPPFIKLSDPGVSPAVLSLEMLTDRIPWVAPECLREAQTLSLEADKWGFGATVWEVFSGVTMPISALDPAKKLQFYEDRQQLPAPKWTELALLIQQCMAYEPVQRPSFRAVIRDLNSLISSDYELLSDPTPGALAPRDGLWNGAQLYACQDPTIFEERHLKYISQLGKGNFGSVELCRYDPLAHNTGALVAVKQLQHSGPDQQRDFQREIQILKALHSDFIVKYRGVSYGPGRPELRLVMEYLPSGCLRDFLQRHRARLDASRLLLYSSQICKGMEYLGSRRCVHRDLAARNILVESEAHVKIADFGLAKLLPLDKDYYVVREPGQSPIFWYAPESLSDNIFSRQSDVWSFGVVLYELFTYCDKSCSPSAEFLRMMGCERDVPALCRLLELLEEGQRLPAPPACPAEVHELMKLCWAPSPQDRPSFSALGPQLDMLWSGSRGCETHAFTAHPEGKHHSLSFS |  | no binding | 
Jak3 Y100A mutant (enzyme, not shown: C-terminal FLAG or Myc tag joined through a ClaI site) MAPPSEETPLIPQRSCSLLSTEAGALHVLLPARAPGPPQRLSFSFGDHLAEDLCVQAAKASGILPVYHSLFALATEDLSCWFPPSHIFSVEDASTQVLLARIRFYFPNWFGLEKCHRFGLRKDLASAILDLPVLEHLFAQHRSDLVSGRLPVGLSLKEQGECLSLAVLDLARMAREQAQRPGELLKTVSYKACLPPSLRDLIQGLSFVTRRAIRRTVRRALPRVAACQADRHSLMAKYIMDLERLDPAGAAETFHVGLPGALGGHDGLGLLRVAGDGGIAWTQGEQEVLQPFCDFPEIVDISIKQAPRVGPAGEHRLVTVTRTDNQILEAEFPGLPEALSFVALVDGYFRLTTDSQHFFCKEVAPPRLLEEVAEQCHGPITLDFAINKLKTGGSRPGSYVLRRSPQDFDSFLLTVCVQNPLGPDYKGCLIRRSPTGTFLLVGLSRPHSSLRELLATCWDGGLHVDGVAVTLTSCCIPRPKEKSNLIVVQRGHSPPTSSLVQPQSQYQLSQMTFHKIPADSLEWHENLGHGSFTKIYRGCRHEVVDGEARKTEVLLKVMDAKHKNCMESFLEAASLMSQVSYRHLVLLHGVCMAGDSTMVQEFVHLGAIDMYLRKRGHLVPASWKLQVVKQLAYALNYLEDKGLPHGNVSARKVLLAREGADGSPPFIKLSDPGVSPAVLSLEMLTDRIPWVAPECLREAQTLSLEADKWGFGATVWEVFSGVTMPISALDPAKKLQFYEDRQQLPAPKWTELALLIQQCMAYEPVQRPSFRAVIRDLNSLISSDYELLSDPTPGALAPRDGLWNGAQLYACQDPTIFEERHLKYISQLGKGNFGSVELCRYDPLAHNTGALVAVKQLQHSGPDQQRDFQREIQILKALHSDFIVKYRGVSYGPGRPELRLVMEYLPSGCLRDFLQRHRARLDASRLLLYSSQICKGMEYLGSRRCVHRDLAARNILVESEAHVKIADFGLAKLLPLDKDYYVVREPGQSPIFWYAPESLSDNIFSRQSDVWSFGVVLYELFTYCDKSCSPSAEFLRMMGCERDVPALCRLLELLEEGQRLPAPPACPAEVHELMKLCWAPSPQDRPSFSALGPQLDMLWSGSRGCETHAFTAHPEGKHHSLSFS |  | no binding | 
Jak3/Jak1 chimera J3 1-130 (enzyme, part only; not given: Jak1 C-terminal part and tag) chain, part: MAPPSEETPLIPQRSCSLLSTEAGALHVLLPARAPGPPQRLSFSFGDHLAEDLCVQAAKASGILPVYHSLFALATEDLSCWFPPSHIFSVEDASTQVLLYRIRFYFPNWFGLEKCHRFGLRKDLASAILD | cells expressing the J3 1-130 chimera also failed to demonstrate STAT5b phosphorylation |  | 
